Experimental data: US20250074996A1 (Innovent, published 2025)
Where two headings read alike, the source gives them in different places.

T1: Human BCMA-Bio (human, UniProt Q02223 1-54, biotin-labeled)
T1 construct: Bought antigen; also called human BCMA antigen (ACRO Biosystems)
T1 sequence (looked up): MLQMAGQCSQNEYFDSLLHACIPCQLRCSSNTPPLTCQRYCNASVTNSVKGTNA

B1: TS-F2-4 (hz5E12.1.P1/SP34.24/38456) (antibody, human IgG1, kappa, lambda, L234A L235A)
heavy 1: not shown
light 1: DIVMTQSPDSLAVSLGERATINCRASESVDSYGITFMNWYQQKPGQPPKLLIYAASNQGSGVPDRFSGSGSGTDFTLTISSLQAEDVAVYYCQQSKEVPWTFGQGTKLEIKRTVAAPSVFIFPPSDEQLKSGTASVVCLLNNFYPREAKVQWKVDNALQSGNSQESVTEQDSKDSTYSLSSTLTLSKADYEKHKVYACEVTHQGLSSPVTKSFNRGEC
heavy 2: not shown
light 2: QAVVTQEPSLTVSPGGTVTLTCRSSTGAVTTSNYANWVQQKPGQAPRGLIGGTNKRAPGVPARFSGSLLGDKAALTLLGAQPEDEAEYYCALWYSNLWVFGQGTKLTVLGQPKAAPSVTLFPPSSEELQANKATLVCLISDFYPGAVTVAWKADSSPVKAGVETTTPSKQSNNKYAASSYLSLTPEQWKSHRSYSCQVTHEGSTVEKTVAPTECS
B2: HB15H1G1 (antibody, V domains shown)
VH: QVQLVESGGGVVQPGRSLRLSCTASGFTFSSYGLHWVRQAPGKGLEWVAVIWYDGSNKYYIDSVKGRFIISRDNSKNTLYLQMNSLRAEDTAVYYCARFTMFRGITLDYWGQGTLVTVSS
VL: DIQMTQSPSSLSASVGDRVTITCRASQRINSYLNWYQQKPGKAPKLLIYAASSLQSGVPSRFSGSGSGTDFTLTISNLQPEDFATYYCQQSYSTPLTFGGGTKVEIK
notes: Fully human anti-GPRC5D antibody; also called HB15H1B1
B3: BCMA×CD3 bispecific antibody 46758 (bispecific antibody, human IgG1, kappa, L234A L235A)
chain 1: not shown
chain 2: not shown
chain 3: DIVMTQSPDSLAVSLGERATINCKSSQSLLNARTGKNYLAWYQQKPGQPPKLLIYWASTRESGVPDRFSGSGSGTDFTLTISSLQAEDVAVYYCKQSYSRRTFGCGTKVEIKGGGGSGGGGSGGGGSGGGGSQVQLVQSGAEVKKPGASVKVSCKASGFNIKDYYMHWVRQAPGQCLEWMGWIDLENANTVYNAKFQGRVTITRDTSASTAYMELSSLRSEDTAVYYCARDAYGRYFYDVWGQGTLVTVSSGSEPKSSDKTHTCPPCPAPEAAGGPSVFLFPPKPKDTLMISRTPEVTCVVVDVSHEDPEVKFNWYVDGVEVHNAKTKPREEQYNSTYRVVSVLTVLHQDWLNGKEYKCKVSNKALPAPIEKTISKAKGQPREPQVCTLPPSRDELTKNQVSLSCAVKGFYPSDIAVEWESNGQPENNYKTTPPVLDSDGSFFLVSKLTVDKSRWQQGNVFSCSVMHEALHNHYTQKSLSLSPGK
B4: ch5E12C4 (antibody, V domains shown)
VH: EVQLQQSGPELVKPGASVKMSCKASGYTFIGYVMHWVKRKPGQGLEWIGYINPYNDVSQHNGKFKGKATLTSDKSSSTAYMELSSLTSEDSAVYYCAREGRLGLRVLAYWGQGTLVTVSA
VL: not shown
B5: ch7F5D4 (antibody, V domains shown)
VH: DVQLQESGPGLVKPSQSLSLTCTVTGYSITSDYAWNWIRQFPGNKLEWMVYIDYTGRTSYNPSLKSRISLTRDTSKNQFFLQFNSVTTEDTATYYCARGNYGRYYYVMDYWGQGTSVTVSS
VL: DIQMTQTTSSLSASLGDRVTISCRASQDIRNYLNWYQQRPDGTIKLLIYYTSRLHSGVPSRFSGSGSGTDYSLTISNLDQEDFATYFCQQGNMLPWTFGGGTSLEIK
B6: ch11B7 (antibody, V domains shown)
VH: EVQLQQSVAELARPGASVKMSCKASGYTFTTYTMHWVKQRPGQGLEWIGFIIPSSGYTSYNQNFKDKVTLTADKSSSTAYMQLSSLTSEDSAVYFCTGGQARAYYPLDYWGQGTSVTVSS
VL: DIVMTQSPAILSVSPGERVSFSCRASQSIGTTIHWYQQRSNGSPRLLIKYASESISGIPSRFSGSGSGTYFTLSINSVESEDIADYFCQQSYNWPRTFGGGTKLEIK

Columns and labels:
[1] = molecular target: T2, CD3E on the surface of Jurkat-NFAT-Luc cells (UniProt P07766 23-207); assay: cell-based or functional assay
[2] = molecular target: T2, CD3E on the surface of Jurkat-NFAT-Luc …; assay: cell-based or functional assay; remark: listed apart in the source
[3] = molecular target: T3, human GPRC5D (human, UniProt Q9NZD1 1-345); assay: flow cytometry on huGPRC5D GS-CHO cells
T3 construct: whole, on cells; also called huGPRC5D; G protein-coupled receptor family C group 5 member D
Protocol: (§1) The affinity of the anti-GPRC5D antibody was detected by flow cytometry. Antibodies at various concentrations were co-incubated with cells expressing human GPRC5D, including GS-CHO cells overexpressing human GPRC5D (huGPRC5D GS-CHO), multiple myeloma cells MM1.R, H929 and AMO-1, for 30 min. A fluorescently-labeled secondary antibody (APC-mouse anti-human IgG Fc antibody, Biolegend, Cat #409306) was then added, the cell fluorescence intensity was detected using a Live/Dead yellow dead cell stain (Thermo Fisher, Cat #L34967) by flow cytometry, a curve was fitted using GraphPad Prism 8.0, and the EC50 value was calculated to show the binding affinity of the antibody to human GPRC5D.
In the exemplary trispecific antibodies, the binding affinities of the antigen-binding sites from the humanized antibodies hz5E12.1.P1 and hz11B7.5 to GPRC5D were detected.

[4] = molecular target: T1, Human BCMA-Bio; assay: BLI (Octet Red96e), SA or AHC sensors, 1:1 fit
Protocol: (§2) Sensors (Fortebio, Cat #18-5019) coupled to streptavidin protein (SA) or anti-human-Fc (AHC) were pre-wetted by immersion in 200 μL of SD buffer (1×PBS, 0.1% BSA, 0.05% tween-20). Exemplary antibodies and biotin-labeled or Fc-tagged BCMA and CD3D&E heterodimer antigens were diluted with SD buffer, respectively. 200 μL of SD buffer and diluted samples (100 nM) were taken and added to a 96-well black plate (Greiner, Cat #655209), respectively. The sensors and the samples were placed in Octet (Fortebio, Red96e). Data Acquisition 10.0 was executed and “New Kinetic Experiment” was selected. The sensors were arranged according to the positions of the samples, and the operation procedures and times were set as: Baseline 60 s, Loading 250 s, Baseline 100 s, Association 600 s and Dissociation 600 s. The experiment was conducted at a rotation speed of 1000 rpm and 30° C.
(§3) The results were analyzed in “Data Analysis 10.0” software, with the buffer reference channel being subtracted. 1:1 binding was selected to fit the data, and kₒₙ, koff, and KD values for the exemplary antibodies were calculated.
(§4) In the experiments performed according to the above-mentioned assay, the exemplary antibodies were detected using a human BCMA antigen (ACRO Biosystems) and a monkey BCMA antigen (ACRO Biosystems). The detection results of the affinities to human BCMA are shown in Table 6; and the detection results of the affinities to monkey BCMA are shown in Table 7.

[5] = molecular target: T4, Cyno BCMA-Fc (monkey (cyno), UniProt A0A2K5UD97 1-53); assay: BLI (Octet Red96e), SA or AHC sensors, 1:1 fit
T4 construct: also called monkey BCMA antigen (ACRO Biosystems); not shown: Fc tag of the bought antigen
Protocol: as §2, §3, §4

[6] = molecular target: T5, Human CD3D&E-Bio (human, UniProt P07766 23-126; P04234 22-105, biotin-labeled (site not stated)); assay: BLI (Octet Red96e), SA or AHC sensors, 1:1 fit
T5 construct: Bought heterodimer antigen; also called human CD3D&E heterodimer antigen (ACRO Biosystems); human CD3E
Protocol: as §2, §3
(§5) In experiments performed according to the above-mentioned assay, the affinities of the exemplary antibodies were detected using a human CD3D&E heterodimer antigen (ACRO Biosystems) and a monkey CD3D&E heterodimer antigen (ACRO Biosystems). The binding affinities of GPRC5D×CD3 bispecific antibodies hz5E12.1-P1/SP34.24 and hz5E12.1-P1/SP34.87 to human/monkey CD3D&E were also detected.

[7] = molecular target: T6, Cyno CD3D&E-Bio (monkey (cyno), UniProt Q95LI5 22-117; Q95LI8 22-105, biotin-labeled (site not stated)); assay: BLI (Octet Red96e), SA or AHC sensors, 1:1 fit
T6 construct: Bought heterodimer antigen; also called monkey CD3D&E heterodimer antigen (ACRO Biosystems); monkey CD3E
Protocol: as §2, §3, §5

[8] = molecular target: T3, human GPRC5D; assay: flow cytometry on H929 cells
Protocol: as §1
(§6) Among the antibodies detected, HB15H1G1 (the heavy chain variable region of SEQ ID NO: 25, and the light chain variable region of SEQ ID NO: 26) was a fully human antibody, and ch5E12C4 (the heavy chain variable region of SEQ ID NO: 98, and the light chain variable region of SEQ ID NO: 99), ch11B7 (the heavy chain variable region of SEQ ID NO: 100, and the light chain variable region of SEQ ID NO: 101) and ch7F5D4 antibodies (the heavy chain variable region of SEQ ID NO: 27, and the light chain variable region of SEQ ID NO: 28) were chimeric antibodies.

[9] = molecular target: T3, human GPRC5D; assay: flow cytometry on AMO-1 cells
Protocol: as §1, §6

[10] = molecular target: T3, human GPRC5D; assay: flow cytometry on MM1.R cells
Protocol: as §1, §6

[11] = molecular target: T3, human GPRC5D; assay: flow cytometry on huGPRC5D-GS-CHO cells
Protocol: as §1, §6

[12] = molecular target: T2, CD3E on the surface of Jurkat-NFAT-Luc …; assay: cell-based or functional assay; remark: listed apart in the source
[13] = molecular target: T2, CD3E on the surface of Jurkat-NFAT-Luc …; assay: cell-based or functional assay; remark: listed apart in the source
[14] = molecular target: T2, CD3E on the surface of Jurkat-NFAT-Luc …; assay: cell-based or functional assay; remark: listed apart in the source

T3 sequence (Q9NZD1 whole entry): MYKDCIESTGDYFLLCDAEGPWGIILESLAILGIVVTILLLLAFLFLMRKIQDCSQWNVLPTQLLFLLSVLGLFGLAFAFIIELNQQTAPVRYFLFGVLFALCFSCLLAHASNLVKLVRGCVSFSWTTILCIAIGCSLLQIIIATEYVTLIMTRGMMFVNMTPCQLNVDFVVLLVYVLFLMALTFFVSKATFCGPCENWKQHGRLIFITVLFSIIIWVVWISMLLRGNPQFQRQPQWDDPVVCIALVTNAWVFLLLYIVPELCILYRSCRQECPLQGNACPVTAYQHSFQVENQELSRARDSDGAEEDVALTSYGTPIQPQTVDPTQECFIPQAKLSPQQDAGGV
T5 sequence (P07766 23-126 limits assumed, chain 1 of 2): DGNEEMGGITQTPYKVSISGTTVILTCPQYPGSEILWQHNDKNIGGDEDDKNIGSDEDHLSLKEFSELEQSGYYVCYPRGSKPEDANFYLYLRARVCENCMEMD
T5 sequence (P04234 22-105 limits assumed, chain 2 of 2): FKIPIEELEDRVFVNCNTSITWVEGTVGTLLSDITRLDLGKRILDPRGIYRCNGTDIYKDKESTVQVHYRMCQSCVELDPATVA
T6 sequence (Q95LI5 22-117 limits assumed, chain 1 of 2): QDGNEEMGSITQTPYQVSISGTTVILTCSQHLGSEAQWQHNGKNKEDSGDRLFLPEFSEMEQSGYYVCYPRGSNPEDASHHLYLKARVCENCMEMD
T6 sequence (Q95LI8 22-105 limits assumed, chain 2 of 2): as the sequence (P04234 22-105 limits assumed, chain 2 of 2) above, with I5V, N15K, I20V, S32T, D33N, I34N, T64A, S74N, V83L counted along it
T4 sequence (A0A2K5UD97 entry or part of it): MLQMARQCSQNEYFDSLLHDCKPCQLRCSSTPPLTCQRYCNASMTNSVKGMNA
T2 sequence (P07766 23-207): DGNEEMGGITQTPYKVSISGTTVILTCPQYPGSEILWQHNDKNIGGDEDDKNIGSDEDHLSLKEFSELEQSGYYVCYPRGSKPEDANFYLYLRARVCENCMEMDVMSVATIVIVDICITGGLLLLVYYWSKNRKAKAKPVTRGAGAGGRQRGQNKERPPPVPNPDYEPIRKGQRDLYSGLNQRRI

| Binder | EC50 of Jurkat-NFAT-Luc luciferase activation; tumor cells 8226 [1] [nM] | EC50 of Jurkat-NFAT-Luc luciferase activation; tumor cells H929 [1] [nM] | EC50 of Jurkat-NFAT-Luc luciferase activation; tumor cells L363 [1] [nM] | EC50 of Jurkat-NFAT-Luc luciferase activation; tumor cells U266 [1] [nM] | EC50 of Jurkat-NFAT-Luc luciferase activation; tumor cells ARD [2] [nM] | EC50 of Jurkat-NFAT-Luc luciferase activation; tumor cells MM.1S [2] [nM] | EC50 [8] [nM] | EC50 [9] [nM] | EC50 [10] [nM] | EC50 [11] [nM] | also measured |
| --- | --- | --- | --- | --- | --- | --- | --- | --- | --- | --- | --- |
| B1 | 0.00788 | 0.00738 | 0.00629 | 0.0503 | 0.00238 | 0.00179 |  |  |  |  | EC50 [3]: 40 nM; Kd [4]: 2.27 nM; koff [4]: 0.000297 s⁻¹; kon [4]: 131000 M⁻¹ s⁻¹; Kd [5]: 0.204 nM; koff [5]: 0.0002 s⁻¹; kon [5]: 980000 M⁻¹ s⁻¹; Kd [6]: 22.1 nM; koff [6]: 0.00326 s⁻¹; kon [6]: 147000 M⁻¹ s⁻¹; Kd [7]: 22.7 nM; koff [7]: 0.00301 s⁻¹; kon [7]: 132000 M⁻¹ s⁻¹ |
| B2 |  |  |  |  |  |  | 3.7 | 9.4 | 0.7 | 1.89 |  |
| B3 | 0.0798 | 0.0835 | 0.0901 | 0.603 | 0.133 | 0.159 |  |  |  |  | EC50 of Jurkat-NFAT-Luc luciferase activation; tumor cells H929 [12]: 0.07 nM; EC50 of Jurkat-NFAT-Luc luciferase activation; tumor cells L363 [12]: 0.43 nM; EC50 of Jurkat-NFAT-Luc luciferase activation; target cells huGPRC5D-GS-CHO [13]: 0.0059 nM; EC50 of Jurkat-NFAT-Luc luciferase activation; tumor cells H929 [13]: 0.344 nM; EC50 of Jurkat-NFAT-Luc luciferase activation; tumor cells L363 [13]: 0.192 nM; EC50 of Jurkat-NFAT-Luc luciferase activation; tumor cells U266 [13]: 0.0311 nM; EC50 of Jurkat-NFAT-Luc luciferase activation; tumor cells 8226 [14]: 0.0798 nM; EC50 of Jurkat-NFAT-Luc luciferase activation; tumor cells H929 [14]: 0.0835 nM; EC50 of Jurkat-NFAT-Luc luciferase activation; tumor cells L363 [14]: 0.0901 nM; EC50 of Jurkat-NFAT-Luc luciferase activation; tumor cells U266 [14]: 0.603 nM |
| B4 |  |  |  |  |  |  | 21.7 | 100 | 3.7 | 9.18 |  |
| B5 |  |  |  |  |  |  | 7.3 | 6.3 | 0.5 | 2.59 |  |
| B6 |  |  |  |  |  |  | 5.99 |  |  | 1.14 |  |
